Measured values reported in the supplement of paper PMC10724198.
± gives the standard deviation of the averaged measurements.

The sequences below were run on Saccharomyces cerevisiae (assay: protein stability index of tFT-peptide fusion (C-terminal peptide) (PSI (0-1 scale)); higher = more stable (slower turnover)). Conditions: genetic background: wild type; temperature: 30 C.
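Further: PSI is a weighted mean of sequencing reads over stability bins, variants kept only with over 10 reads, mCherry proximal and sfGFP distal, peptide attached via GGGS linker.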

LLHAGVCSVSFL and IIIVGSWSGGGG are within error of each other in protein stability index: 0.718 ± 0.038 for the first, 0.663 ± 0.025 for the second.

YYAMGFEKSISS and INVNNENLRGTE are within error of each other in protein stability index: 0.682 ± 0.031 for the first, 0.663 ± 0.072 for the second.

PLPPSPYPSPSP and SKLTRHVDLHGS are within error of each other in protein stability index: 0.661 ± 0.028 for the first, 0.6898 ± 0.0017 for the second.

GFLPVQGQGLVD and RFWDMGGYAGGL are within error of each other in protein stability index: 0.688 ± 0.045 for the first, 0.733 ± 0.079 for the second.

Going from PPRPPPHPPLPP to LWVGSGGARCVV, the protein stability index falls from 0.678 ± 0.0057 to 0.624 ± 0.03.

PTTPPPSVPPLY and RGWARGRQGCGG are within error of each other in protein stability index: 0.715 ± 0.042 for the first, 0.726 ± 0.011 for the second.

ACRTGSSLLHPI and PALASHLAPLDP are within error of each other in protein stability index: 0.706 ± 0.06 for the first, 0.6958 ± 0.0049 for the second.

First: GGGGLDGYGGGG
Second: LLSGPTLSCVPT
The protein stability index of the first is higher: 0.69 ± 0.029 for the first, 0.617 ± 0.043 for the second.

Compared with FILWSLIMGPYA, TSCIVVRGGRNG is higher in protein stability index: 0.522 ± 0.019 for the first, 0.6453 ± 0.0041 for the second.

Going from RLAVLKGWTTFV to TPSSPSARHPPP, the protein stability index rises from 0.567 ± 0.039 to 0.715 ± 0.036.

First: GQNGFVDGGCVL
Second: ERKKPKKKRMRY
The protein stability index of the first is lower: 0.677 ± 0.0081 for the first, 0.706 ± 0.011 for the second.

Going from PHFSSLPWAPPG to KAPPDERGTGAQ, the protein stability index falls from 0.749 ± 0.041 to 0.6273 ± 0.0018.

EQRNLELSGHIC and PPPFPLLSPPPL are within error of each other in protein stability index: 0.725 ± 0.12 for the first, 0.808 ± 0.0097 for the second.

KQKKKKKEYKKK and GSIWVVGGGQGV are within error of each other in protein stability index: 0.676 ± 0.027 for the first, 0.731 ± 0.048 for the second.

ALVLLIPLSLLL and AADSKERPPRPP are within error of each other in protein stability index: 0.522 ± 0.11 for the first, 0.625 ± 0.0092 for the second.

PRPGGQGHPNAG and HPFASRSRFTPR are within error of each other in protein stability index: 0.742 ± 0.027 for the first, 0.753 ± 0.063 for the second.

PLPRLTRPSPPR and PHNPFPTRTPPP are within error of each other in protein stability index: 0.681 ± 0.067 for the first, 0.71 ± 0.039 for the second.

PPPHTHPPTPLL and GGGVWQWERGRG are within error of each other in protein stability index: 0.689 ± 0.011 for the first, 0.811 ± 0.14 for the second.

FWMPKASALGAA and GGGAGRSWFVGC are within error of each other in protein stability index: 0.655 ± 0.019 for the first, 0.711 ± 0.042 for the second.

VVWGLGAGRMVW and LFTSCPPDVRSL are within error of each other in protein stability index: 0.656 ± 0.076 for the first, 0.667 ± 0.012 for the second.

RPGNGLTLPTAS and DGWTLCRVGCVG are within error of each other in protein stability index: 0.622 ± 0.072 for the first, 0.652 ± 0.061 for the second.

AYRKQGRGERKG and SWVDGGVRRCGV are within error of each other in protein stability index: 0.65 ± 0.011 for the first, 0.662 ± 0.019 for the second.

PPSPPPPPPLHS and NRSKNKKIIREI are within error of each other in protein stability index: 0.676 ± 0.042 for the first, 0.6341 ± 0.0056 for the second.

VKIYSSPFFCLI and KRRRYKEKPRKR are within error of each other in protein stability index: 0.57 ± 0.011 for the first, 0.665 ± 0.12 for the second.

GGCGGVWGACVV and PHPPPLPPLPSP are within error of each other in protein stability index: 0.709 ± 0.023 for the first, 0.721 ± 0.053 for the second.

RRLRCNDCPFVV and SSSAPSSVPPLG are within error of each other in protein stability index: 0.755 ± 0.085 for the first, 0.734 ± 0.016 for the second.

Going from PPRPSLIPPLPS to GGGGEVARSAHR, the protein stability index rises from 0.61 ± 0.016 to 0.6696 ± 0.0056.

FLDTSSYFMFAS and WCLGLGCVWGGW are within error of each other in protein stability index: 0.7123 ± 0.007 for the first, 0.779 ± 0.092 for the second.

PFPRPLSPLPFR and ALLAFMSSPRRL are within error of each other in protein stability index: 0.75 ± 0.074 for the first, 0.7001 ± 0.0028 for the second.

Compared with PRERADPSLPVK, RGASLFPTPLAF is higher in protein stability index: 0.663 ± 0.035 for the first, 0.742 ± 0.043 for the second.

RHGVQMAGLKRR and PPFFSHDWYLRV are within error of each other in protein stability index: 0.679 ± 0.019 for the first, 0.695 ± 0.076 for the second.

Compared with TFRRFKVQQLGN, PCWPARVWVSFL is lower in protein stability index: 0.561 ± 0.023 for the first, 0.504 ± 0.013 for the second.

SPPPHPPLRFLP and HPHVPAPRVPHP are within error of each other in protein stability index: 0.667 ± 0.049 for the first, 0.721 ± 0.047 for the second.

Compared with PSPRPAPPPPPP, LAFFAPCLLPPL is lower in protein stability index: 0.707 ± 0.054 for the first, 0.557 ± 0.048 for the second.

Going from QVCSRKKCDSRK to FAISTSMVNLAM, the protein stability index rises from 0.567 ± 0.069 to 0.681 ± 0.039.

VSLLSSDTRSAY and VDVSGVCEFVLG are within error of each other in protein stability index: 0.753 ± 0.07 for the first, 0.706 ± 0.1 for the second.

GFRVSVGVVEGG showed a protein stability index of 0.6716 ± 0.0056.
